Measurements as given in article PMC4766014, “Structures of Two Melanoma-Associated Antigens Suggest Allosteric Regulation of Effector Binding” (PLoS ONE, 2016).

B1: MAGE-A3 MHD domain, residues 104-314 (domain or fragment, human, UniProt P43357 104-314, looked up)
chain: EFQAALSRKVAELVHFLLLKYRAREPVTKAEMLGSVVGNWQYFFPVIFSKASSSLQLVFGIELMEVDPIGHLYIFATCLGLSYDGLLGDNQIMPKAGLLIIVLAIIAREGDCAPEEKIWEELSVLEVFEGREDSILGDPKKLLTQHFVQENYLEYRQVPGSDPACYEFLWGPRALVETSYVKVLHHMVKISGGPHISYPPLHEWVLREGEE
notes: MAGE-A3, human, MAGE homology domain (MHD), residues 104-314; Dimer in solution by AUC and SAXS (dimer B interface); The final 4 residues are disordered in the crystal structure; also called MAGE-A3^104-314; melanoma associated antigen A3
B2: MAGE-A3 C-terminally truncated construct, residues 104-294 (domain or fragment, human, UniProt P43357 104-294, looked up)
chain: EFQAALSRKVAELVHFLLLKYRAREPVTKAEMLGSVVGNWQYFFPVIFSKASSSLQLVFGIELMEVDPIGHLYIFATCLGLSYDGLLGDNQIMPKAGLLIIVLAIIAREGDCAPEEKIWEELSVLEVFEGREDSILGDPKKLLTQHFVQENYLEYRQVPGSDPACYEFLWGPRALVETSYVKVLHHMVKIS
notes: MAGE-A3, human, residues 104-294 (lacks the final 20 residues of the crystallized construct); also called MAGE-A3^104-294

Biological target: the molecule itself
Test: AUC; sedimentation velocity, 4°C, 45,000 rpm, 10 mM HEPES pH 7.5, 150 mM NaCl, 0.5 mM TCEP; MAGE-A3 at 0.75 mg/ml, MAGE-A4 at 0.5 mg/ml; c(s) analysis with SEDFIT

Protein | stoichiometry N
B1 | 2
B2 | 2
